We go through one molecule from paper doi:10.1101/2025.01.22.633148 (bioRxiv, 2025).

Assay [1] concerns the target Human Rpn1, full-length, recombinant (human, UniProt Q13200 1-908). The assay is described as follows: ITC. On the technique in general: Isothermal titration calorimetry measures the heat released or taken up as one component is titrated into another.
In assay [2] the target is Hsp70 nucleotide-binding domain (Hsp70NBD). The assay is described as follows: ITC.

Chain of Human Rpn1, full-length, recombinant (Q13200 whole entry, the tested form may be a part): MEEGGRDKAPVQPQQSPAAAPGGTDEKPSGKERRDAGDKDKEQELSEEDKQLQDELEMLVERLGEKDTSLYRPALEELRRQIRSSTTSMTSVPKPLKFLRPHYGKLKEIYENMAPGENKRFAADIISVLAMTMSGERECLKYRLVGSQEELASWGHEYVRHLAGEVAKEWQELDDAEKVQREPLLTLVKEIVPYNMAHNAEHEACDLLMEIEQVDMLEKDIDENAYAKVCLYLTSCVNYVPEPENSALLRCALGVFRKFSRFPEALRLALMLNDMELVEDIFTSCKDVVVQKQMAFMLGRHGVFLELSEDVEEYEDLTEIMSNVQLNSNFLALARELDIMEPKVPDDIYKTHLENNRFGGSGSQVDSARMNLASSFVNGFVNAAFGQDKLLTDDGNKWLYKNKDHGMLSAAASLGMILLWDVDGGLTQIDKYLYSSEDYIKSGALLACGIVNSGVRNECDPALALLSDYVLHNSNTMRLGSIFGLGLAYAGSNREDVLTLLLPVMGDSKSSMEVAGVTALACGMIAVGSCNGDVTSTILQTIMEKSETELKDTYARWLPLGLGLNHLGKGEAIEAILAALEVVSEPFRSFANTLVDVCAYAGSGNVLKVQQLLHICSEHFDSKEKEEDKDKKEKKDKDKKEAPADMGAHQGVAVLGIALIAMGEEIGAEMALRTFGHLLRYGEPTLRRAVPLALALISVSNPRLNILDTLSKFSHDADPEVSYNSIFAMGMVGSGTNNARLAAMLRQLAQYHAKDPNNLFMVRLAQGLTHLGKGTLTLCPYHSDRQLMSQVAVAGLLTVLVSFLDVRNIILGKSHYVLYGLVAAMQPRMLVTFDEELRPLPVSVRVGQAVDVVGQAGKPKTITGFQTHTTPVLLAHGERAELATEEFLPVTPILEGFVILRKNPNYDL

B1: Bag1 (Bcl-2 associated anthanogene 1), full-length (natural protein)
chain: MNRSQEVTRDEESTRSEEVTREEMAAAGLTVTVTHSNEKHDLHVTSQQGSSEPVVQDLAQVVEEVIGVPQSFQKLIFKGKSLKEMETPLSALGIQDGCRVMLIGKKNSPQEEVELKKLKHLEKSVEKIADQLEELNKELTGIQQGFLPKDLQAEALCKLDRRVKATIEQFMKILEEIDTLILPENFKDSRLKRKGLVKKVQAFLAECDTVEQNICQETERLQSTNFALAE
Regarding B1, the results for the Kd in assay [1] and in assay [2] were roughly 0.5 µM and 0.05 µM, respectively.
